Assay results taken from publication PMC7271347.
Read-outs that look alike come from different tables or passages of the source.

Legend:
Assay in all cases: SEC-MALS
[1] = biological target: λ Ea22(93–182) (bacteriophage λ)
[2] = biological target: λ Ea22(109–182) (bacteriophage λ)
[3] = biological target: φP27 Ea22(1–315) (bacteriophage φP27)
[4] = biological target: λ Ea22(1–182) (bacteriophage λ)
[5] = biological target: φ24B Ea22(135–261) (bacteriophage φ24B)
[6] = biological target: φ24B Ea22(135–261) (bacteriophage φ24B); remark: listed apart in the source
[7] = biological target: λ Ea22(102–182) (bacteriophage λ)

## λ Ea22(93–182) (domain or fragment)
[1]
  stoichiometry N: 2

## λ Ea22(109–182) (domain or fragment)
[2]
  stoichiometry N: 2

## φP27 Ea22(1–315) (natural protein)
[3]
  stoichiometry N: 4

## λ Ea22(1–182) (natural protein)
[4]
  stoichiometry N: 4

## φ24B Ea22(135–261) (domain or fragment)
[5]
  stoichiometry N: 2
[6]
  stoichiometry N: 4

## λ Ea22(102–182) (domain or fragment)
[7]
  stoichiometry N: 2
